± gives the standard deviation of the averaged measurements.
Assay: total protein half-life in vivo (active degradation + dilution); higher = more stable protein
[1] = E. coli NCM3722 delta-clpP, growth: N-lim chemostat, doubling time 6 h
[2] = E. coli NCM3722 delta-clpP delta-lon delta-hslV, growth: N-lim chemostat, doubling time 6 h
[3] = E. coli NCM3722 delta-hslV, growth: N-lim chemostat, doubling time 6 h
[4] = E. coli NCM3722 delta-lon, growth: N-lim chemostat, doubling time 6 h
[5] = E. coli NCM3722 delta-smpB, growth: N-lim chemostat, doubling time 6 h
[6] = wild type E. coli NCM3722, growth: C-lim chemostat, doubling time 3 h
[7] = wild type E. coli NCM3722, growth: C-lim chemostat, doubling time 6 h
[8] = wild type E. coli NCM3722, growth: C-lim chemostat, doubling time 12 h
[9] = wild type E. coli NCM3722, growth: N-lim chemostat, doubling time 6 h
[10] = wild type E. coli NCM3722, growth: N-lim chemostat, doubling time 12 h
[11] = wild type E. coli NCM3722, growth: P-lim chemostat, doubling time 6 h
[12] = wild type E. coli NCM3722, growth: P-lim chemostat, doubling time 12 h

Sequence	total protein half-life in vivo [1] [h]	total protein half-life in vivo [2] [h]	total protein half-life in vivo [3] [h]	total protein half-life in vivo [4] [h]	total protein half-life in vivo [5] [h]	total protein half-life in vivo [6] [h]	total protein half-life in vivo [7] [h]	total protein half-life in vivo [8] [h]	total protein half-life in vivo [9] [h]	total protein half-life in vivo [10] [h]	total protein half-life in vivo [11] [h]	total protein half-life in vivo [12] [h]
MTNITLQKQHRTLWHFIPGLALSAVITGVALWGGSIPAVAGAGFSALTLAILLGMVLGNTIYPHIWKSCDGGVLFAKQYLLRLGIILYGFRLTFSQIADVGISGIIIDVLTLSSTFLLACFLGQKVFGLDKHTSWLIGAGSSICGAAAVLATEPVVKAEASKVTVAVATVVIFGTVAIFLYPAIYPLMSQWFSPETFGIYIGSTVHEVAQVVAAGHAISPDAENAAVISKMLRVMMLAPFLILLAARVKQLSGANSGEKSKITIPWFAILFIVVAIFNSFHLLPQSVVNMLVTLDTFLLAMAMAALGLTTHVSALKKAGAKPLLMALVLFAWLIVGGGAINYVIQSVIA	2.86	–	–	–	–	–	–	–	–	–	–	–
MDDLTAQALKDFTARYCDAWHEEHKSWPLSEELYGVPSPCIISTTEDAVYWQPQPFTGEQNVNAVERAFDIVIQPTIHTFYTTQFAGDMHAQFGDIKLTLLQTWSEDDFRRVQENLIGHLVTQKRLKLPPTLFIATLEEELEVISVCNLSGEVCKETLGTRKRTHLASNLAEFLNQLKPLL [P0A8U0]	–	4.63 ± 0.19	3.71 ± 0.25	5.62 ± 1.2	4.15 ± 0.19	> 4	4.21 ± 1.8	9.71	3.72	7.43 ± 1.4	5.7 ± 0.28	12.7 ± 2.7
MKFWRPGITGKLFLAIFATCIVLLISMHWAVRISFERGFIDYIKHGNEQRLQLLSDALGEQYAQHGNWRFLRNNDRFVFQILRSFEHDNSEDKPGPGMPPHGWRTQFWVVDQNNKVLVGPRAPIPPDGTRRPILVNGAEVGAVIASPVERLTRNTDINFDKQQRQTSWLIVALATLLAALATFLLARGLLAPVKRLVDGTHKLAAGDFTTRVTPTSEDELGKLAQDFNQLASTLEKNQQMRRDFMADISHELRTPLAVLRGELEAIQDGVRKFTPETVASLQAEVGTLTKLVDDLHQLSMSDEGALAYQKAPVDLIPLLEVAGGAFRERFASRGLKLQFSLPDSITVFGDRDRLMQLFNNLLENSLRYTDSGGSLQISAGQRDKTVRLTFADSAPGVSDDQLQKLFERFYRTEGSRNRASGGSGLGLAICLNIVEAHNGRIIAAHSPFGGVSITVELPLERDLQREV	6.22 ± 0.26	6.52 ± 0.079	6.4 ± 0.69	6.08 ± 0.73	5.49 ± 0.43	3.33 ± 0.098	–	11.3 ± 2.3	6.23 ± 0.92	12.9 ± 0.13	6.86 ± 0.52	12.1 ± 1.4
MTPEHLPTEQYEAQLAEKVVRLQSMMAPFSDLVPEVFRSPVSHYRMRAEFRIWHDGDDLYHIIFDQQTKSRIRVDSFPAASELINQLMTAMIAGVRNNPVLRHKLFQIDYLTTLSNQAVVSLLYHKKLDDEWRQEAEALRDALRAQNLNVHLIGRATKTKIELDQDYIDERLPVAGKEMIYRQVENSFTQPNAAMNIQMLEWALDVTKGSKGDLLELYCGNGNFSLALARNFDRVLATEIAKPSVAAAQYNIAANHIDNVQIIRMAAEEFTQAMNGVREFNRLQGIDLKSYQCETIFVDPPRSGLDSETEKMVQAYPRILYISCNPETLCKNLETLSQTHKVERLALFDQFPYTHHMECGVLLTAK	5.19 ± 0.62	6.08 ± 1.6	4.85 ± 0.33	5.53 ± 0.082	5.35 ± 0.35	–	6.89 ± 0.74	12.6 ± 2.2	4.83 ± 0.21	11.3 ± 2.8	5.56 ± 0.39	13.8 ± 1.9
MRALLPYLALYKRHKWMLSLGIVLAIVTLLASIGLLTLSGWFLSASAVAGVAGLYSFNYMLPAAGVRGAAITRTAGRYFERLVSHDATFRVLQHLRIYTFSKLLPLSPAGLARYRQGELLNRVVADVDTLDHLYLRVISPLVGAFVVIMVVTIGLSFLDFTLAFTLGGIMLLTLFLMPPLFYRAGKSTGQNLTHLRGQYRQQLTAWLQGQAELTIFGASDRYRTQLENTEIQWLEAQRRQSELTALSQAIMLLIGALAVILMLWMASGGVGGNAQPGALIALFVFCALAAFEALAPVTGAFQHLGQVIASAVRISDLTDQKPEVTFPDTQTRVADRVSLTLRDVQFTYPEQSQQALKGISLQVNAGEHIAILGRTGCGKSTLLQQLTRAWDPQQGEILLNDSPIASLNEAALRQTISVVPQRVHLFSATLRDNLLLASPGSSDEALSEILRRVGLEKLLEDAGLNSWLGEGGRQLSGGELRRLAIARALLHDAPLVLLDEPTEGLDATTESQILELLAEMMREKTVLMVTHRLRGLSRFQQIIVMDNGQIIEQGTHAELLARQGRYYQFKQGL	6.58 ± 0.21	> 8	6.08 ± 0.081	6.01 ± 0.34	5.928 ± 0.023	3.08 ± 0.092	5.92 ± 0.12	–	5.99 ± 0.31	11.7 ± 0.28	6.274 ± 0.058	12.3 ± 1.1
MNVFSQTQRYKALFWLSLFHLLVITSSNYLVQLPVSILGFHTTWGAFSFPFIFLATDLTVRIFGAPLARRIIFAVMIPALLISYVISSLFYMGSWQGFGALAHFNLFVARIATASFMAYALGQILDVHVFNRLRQSRRWWLAPTASTLFGNVSDTLAFFFIAFWRSPDAFMAEHWMEIALVDYCFKVLISIVFFLPMYGVLLNMLLKRLADKSEINALQAS	–	–	–	–	–	2.3	–	–	–	–	–	–
MSLNFLDFEQPIAELEAKIDSLTAVSRQDEKLDINIDEEVHRLREKSVELTRKIFADLGAWQIAQLARHPQRPYTLDYVRLAFDEFDELAGDRAYADDKAIVGGIARLDGRPVMIIGHQKGRETKEKIRRNFGMPAPEGYRKALRLMQMAERFKMPIITFIDTPGAYPGVGAEERGQSEAIARNLREMSRLGVPVVCTVIGEGGSGGALAIGVGDKVNMLQYSTYSVISPEGCASILWKSADKAPLAAEAMGIIAPRLKELKLIDSIIPEPLGGAHRNPEAMAASLKAQLLADLADLDVLSTEDLKNRRYQRLMSYGYA [P0ABD5]	–	6.13 ± 0.7	6.72 ± 0.71	7.18 ± 0.38	5.526 ± 0.043	3.63 ± 0.15	7.76 ± 0.089	12.5 ± 0.96	6.34 ± 0.58	11.4 ± 2.5	6.27 ± 0.27	13.9 ± 1.9

— the supplement of paper PMC11246515
